The values below come from doi:10.1101/303537 (bioRxiv, 2018).

Where no end group is shown, it is not given here.

The target in test [1] is Retinoblastoma binding protein 7 (RBBP7) (human, UniProt Q16576 1-425). The experiment in a line: fluorescence polarisation. A general note: Polarisation of emitted light reports the rotation of a fluorescent probe.
The target in test [2] is Retinoblastoma binding protein 4 (RBBP4) (human, UniProt Q09028 1-425). As to the kind of experiment: fluorescence polarisation.
Chain of Retinoblastoma binding protein 4 (RBBP4) (Q09028 whole entry): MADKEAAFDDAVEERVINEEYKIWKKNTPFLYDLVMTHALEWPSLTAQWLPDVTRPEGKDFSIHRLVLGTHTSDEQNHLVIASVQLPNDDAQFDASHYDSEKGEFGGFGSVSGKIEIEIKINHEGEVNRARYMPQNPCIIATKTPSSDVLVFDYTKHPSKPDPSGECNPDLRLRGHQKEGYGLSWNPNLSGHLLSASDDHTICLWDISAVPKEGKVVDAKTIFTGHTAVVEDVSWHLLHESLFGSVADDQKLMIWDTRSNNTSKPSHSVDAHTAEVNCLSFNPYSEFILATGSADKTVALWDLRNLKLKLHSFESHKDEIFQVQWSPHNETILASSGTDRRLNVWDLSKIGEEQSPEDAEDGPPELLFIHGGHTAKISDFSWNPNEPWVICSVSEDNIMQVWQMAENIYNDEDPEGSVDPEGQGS

Chain of Retinoblastoma binding protein 7 (RBBP7) (Q16576 whole entry): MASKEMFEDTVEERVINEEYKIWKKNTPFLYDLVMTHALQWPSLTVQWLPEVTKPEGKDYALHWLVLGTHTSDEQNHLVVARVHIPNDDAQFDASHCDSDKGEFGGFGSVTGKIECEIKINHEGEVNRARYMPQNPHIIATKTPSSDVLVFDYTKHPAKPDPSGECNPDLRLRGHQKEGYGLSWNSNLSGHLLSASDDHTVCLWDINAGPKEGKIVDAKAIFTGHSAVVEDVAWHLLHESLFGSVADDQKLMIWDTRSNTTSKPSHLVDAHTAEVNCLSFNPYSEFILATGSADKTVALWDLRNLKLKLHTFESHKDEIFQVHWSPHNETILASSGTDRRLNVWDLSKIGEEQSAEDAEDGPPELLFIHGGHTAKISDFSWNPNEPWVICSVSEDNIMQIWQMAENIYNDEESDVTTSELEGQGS

B1: FITC-labeled histone H4 (16–41) peptide (peptide)
peptide: not shown
modifications: FITC label (position not given)
For orientation: Kd means the equilibrium constant for the complex coming apart. Read a low Kd as tighter binding. In turn, B1 registered a Kd in test [1] of 135 ± 12 nM.

B2: FITC-labeled PHF6 (157–171) peptide (peptide)
peptide: KSKKKSRKGRPRKTN
modifications: also: FITC label (position not given here)
Turning to B2, the dissociation constant Kd in test [2] was found to be 201 ± 102 nM.

B3: FITC-labeled FOG-1 (1–15) peptide (peptide)
peptide: MSRRKQSNPRQIKRS
modifications: also: FITC label (position not given here)
In the case of B3, in test [2], the Kd came to 488 ± 245 nM.

B4: FITC-labeled SUZ12 (105–121) peptide (peptide)
peptide: LIAPIFLHRTLTYMSHR
modifications: also: FITC label (position not given here)
B4 registered a Kd in test [2] of 6400 ± 600 nM.
